Measurements from the DeepSol protein solubility set.

assay: soluble on expression in E. coli; label from the status in PepcDB or PDB records

Sequence | soluble on expression in E. coli
MTHSPSFLQHALSSSDTRAEWPLPGGLAARWLAPGCVELNGDARGADSVLLSCGVHGNETAPIEVVDGMLTDIAAGQLALNCRLLVMFANLDAIRQGVRYGNYDMNRLFNGAHARHPELPESVRAAELETLAAEFFAGARARKLHYDLHTAIRGSVFEKFAIYPFLHDGRTHKREQLAWLQRCGIEAVLLHTQPANTFSYFTSQYCEADAFTLELGKARPFGQNDLSRFSGIDGALRGLLSNPQANVPDLDEDKLPLFRAKYDLVKHSEAFKLNLADSVENFTLLPDGMLIAEDGAVRYQATGGEERILFPNPAVKPGLRAGIVVEPARLPSRLEHHHHHH | soluble
MTIIKLERRDVRLLLLYEFRLGHSAMEAERNICGAMGEGALSYNTAKSWFQKFKNGDFSLEEIERSGRPVELNEEDLVKLVEEEPRLSLREMEEKLECCHSTIARHLGRLGFTSKLGIWVPHELSASQKLTRVNVCTQLLTFRRKFDWLNNLVTGDEKWVLYVNHSRKRQWLPIGEKGIPTPKPDLHPKKIMICVWWGVQGPVHWELLPTNKTITADYYCAQLDRVAEKTNGKYEKLYFLHDNARPHVAKKTFQKLQDLGWTVLPHPPYSPDLAPTDYHLFLSLSDYMRDKQFDDEEHLKTELSTFFSSRSPDFFSRGIMMLPSKWQQVVDTNGEYLCE | not soluble
MTISFNTVPSNTLVPLFYAEMNNSAANTAVTSAPALLIGHASNDAAIEVNSLVLMPSADYARQICGAGSQLARMVEVYRQTDPFGELYVIAVPEARGAAATVRVTVAGEAEESGTLSLYVGRSRVQVPVVNGDDATAVATAIKEAVNGVITLPFTASSDAGVVTLTARHKGLYGNELPVCLNYYGSGGGEILPAGLRVVTEVGAAGSGAPDLTAAVAAMGDEAFDFIGLPFNDAASINMMMTEMNDSSGRWSYARQLYGHVYTAKLGTLSELVGAGDMHNQQHITLAGYEKETQSPVDELVASRLAREAVFIRNDPARPTQTGELVGMLPAPKGKRFIMTEQQTLLSHGVATAYVEGGTLQIQRSVTTYKKNAYGVADNSYLDSETLHTSAYVLRKLKSVITSKYGRHKLANDGTRFGPGQAIVTPAVIKGELLATYRQMERAGIVENYDLFKQYLIVERDADNPNRLNTLFPPDYVNQLRVFAVVNQFRLQYSEESA | not soluble
MTKITLSDLPLREELRGEHAYGAPQLNVDIRLNTNENPYPPSEALVADLVATVDKIATELNRYPERDAVELRDELAAYITKQTGVAVTRDNLWAANGSNEILQQLLQAFGGPGRTALGFQPSYSMHPILAKGTHTEFIAVSRGADFRIDMDVALEEIRAKQPDIVFVTTPNNPTGDVTSLDDVERIINVAPGIVIVDEAYAEFSPSPSATTLLEKYPTKLVVSRTMSKAFDFAGGRLGYFVANPAFIDAVMLVRLPYHLSALSQAAAIVALRHSADTLGTVEKLSVERVRVAARLEELGYAVVPSESNFVFFGDFSDQHAAWQAFLDRGVLIRDVGIAGHLRTTIGVPEENDAFLDAAAEIIKLNLSAWSHPQFEK | soluble
MTKKSTIQPCLVCGQSSNSILFGAPSCRACGEFFRRKVISNFKIKNNCLGECSFAKKSMKPCQSCRFQKCLEAGMLEKMVFSRKAIYSISNFEKSILEELEEAYSKLEHGRNETFNPKSDSNPKFCSHEELNNTCTIDIQIILDNLISYFQAKKPMGKEQDDVLKMHFIVPFVLFDTAFRAIGKSSYISPDGTMFGGSYVEKLYQDSSNSKIGVNNGKTSREIMESYWKVSYKILKSEMELLQLDRSEFLLLSALIYWDFGLENQSDKCCENCNTIREKVLKELVKYERKKSGQNALRIAMIMGLLQAVPKALDVMKTCGFLSKIYNLRGSGCPLYAISTNSPPQ | not soluble
MTLENNMDKKLFCISTYGCQMNEEDSEKLSGMLKSQGYERTENKEEASIIIFNTCCVRENAENKVFGNLGQLKQLKKKNPNLVIAICGCMMQQVGMADKVLKTFPYVDIIFGTHNAHKFPEYLHRVLQEGVQVKEILNKEEGIVEGLPIDRKSDVKAFVTIMYGCNNFCTYCIVPYVRGRERSRKSEDIIKEIEELVSQGYKEITLLGQNVNSYGKGLEEDIDFAGLLRKVNEVKGLERVRFMTSHPKDLSDDVIMAIKECDKLCEQVHLPVQSGSSRILKEMNRHYDREYYLDLVKKIKSEIPDVTLTTDIIIGFPGETEEDFLDTLSLCEEVGYDSAFTFIYSRRNHTPADKMENQIPDDIKHDRFNRLVEAINKKVVIKNKEYEGKVVEVLVEGPSKNDETKLTGRTRNGKLVNFAGDEKLVGELVNLKIVRAQPFSLIGEIVE | soluble
MTLGARLVAPMIILLLFIPIELVKAEVITLTPETFSDKIKEKDTAWFVKFCVPWCKHCKKLGNLWEDLGKAMEGDDEIEVGEVDCGTSRAVCTKVEIHSYPTFMLFYNGEEVSKYKGKRDVESLKAFVVEETEKAAEKAQLEDKEL | soluble
MTLIILEGPDCCFKSTVAAKLSKELKYPIIKGSSFELAKSGNEKLFEHFNKLADEDNVIIDRFVYSNLVYAKKFKDYSILTERQLRFIEDKIKAKAKVVYLHADPSVIKKRLRVRGDEYIEGKDIDSILELYREVMSNAGLHTYSWDTGQWSSDEIAKDIIFLVELEHHHHHH | soluble
MTLISRIKQLAQSKQLTLAQLERNVGISNGQIRRWDTSSPKVENLLKIADYFSVSLDYLMGRTQQTEINHQAPMKSTQKELHIHITTEELTEEEITQLEEEANRFLRFRKFEMTNS | not soluble
MTLKFSYFGTRGIGEPIRMLLTDQEVAFIDHRFSWEQWADIKPTMIFGSCPCLTMGDKEIVQSGTIIRHLARIHGLNGTNEEETIFIDMFYEGVRDLHATYATMIYQNYENGRQPFIQDVLPEHLARLEKLFRTYENGENFVAGANISYVDYVLFEELDIQKILSPTALDRTPQLKKFHEQFGERKNLTEYLKKRAIMKTPVNGNGKQ | not soluble
MTLLNSRRAAGAFATTLVASTLGLSGCTSVTSSATSSPEPPTKVAAAMQTTTGETSISNETSFNASRETSLTALGFLDYLDEEQRAALLGEGLDISTLTWANQVTALRVLESLFNEHAYELVSAVIQHVAQEPGDNPHHFLKFSPEPSTENSWELTLDGPTVGLKVTFDPDGQITFKDAHLGLSPAEVVSVTEALDTSYSESQIKKAAEQLVGSLNPTQQAALQGSGLRGAQLTEEQKTLFLKMTSNWIDLANGDSGSEQQEEIADTFSDTYIIWNEQKDGSAFFQMKGPELDFSYKESVPENAELSARGVPNIQTSFQSPLEHHHHHH | not soluble
MTLLRGTVRTKTSCQLVSAIGTQNCTVWEGYEVSEITPGNSNTSYITWKRSVPNTNLSQPITSCPASTVKFPTCKVGWKLFPRYNTYWCLTLGINRRERDGYLLQFDQSFSYVACRWDGSEFIDGRISGLESNEERAYATDRAYQIMKQNMRETLFVFPSNVRLGWGVWVDGVKDVAGQVKYSDTTLNLKLGYKWDIGQPNWVSRKQACVMLMVPVNQSSRSNGSLRTAEYLRSI | not soluble
MTLRAAVFDLDGVLALPAVFGVLGRTEEALALPRGLLNDAFQKGGPEGATTRLMKGEITLSQWIPLMEENCRKCSETAKVCLPKNFSIKEIFDKAISARKINRPMLQAALMLRKKGFTTAILTNTWLDDRAERDGLAQLMCELKMHFDFLIESCQVGMVKPEPQIYKFLLDTLKASPSEVVFLDDIGANLKPARDLGMVTILVQDTDTALKELEKVTGIQLLNTPAPLPTSCNPSDMSHGYVTVKPRVRLHFVELGSGPAVCLCHGFPESWYSWRYQIPALAQAGYRVLAMDMKGYGESSAPPEIEEYCMEVLCKEMVTFLDKLGLSQAVFIGHDWGGMLVWYMALFYPERVRAVASLNTPFIPANPNMSPLESIKANPVFDYQLYFQEPGVAEAELEQNLSRTFKSLFRASDESVLSMHKVCEAGGLFVNSPEEPSLSRMVTEEEIQFYVQQFKKSGFRGPLNWYRNMERNWKWACKSLGRKILIPALMVTAEKDFVLVPQMSQHMEDWIPHLKRGHIEDCGHWTQMDKPTEVNQILIKWLDSDARNPPVVSKM | soluble
MTLRSQDPRIAIIGGGIAGATAAVHLGELGLNVVLMEKSAGLVSGPPICHLHAGGNLYREISEQQCIDLLEQSIETVRLYPHTLNVRPTLIAIPQSDPGQPEEILPRLVTIQNAYRKLVEQDAANQVLGAVDNYYRLYQREELERLAQQQQANPPQSDDEWVIPFAQHADLAQLKYPVVLVQEYGWSVFRLAASVDLTLEALPNCQVMLRTELVDATFQDNQWRLTYLDAQGERHTQTVDYLVNACGFETGRVDDMARHHRQRLVEFKAAYVTHWPACHQWWPEVIFHGPRGSEDGMAQLTPYADGTFQLHGMTESITLFADGLVASTPTSAQPQLPLYLQHKIERGWPMSAQQERTVRAIQHMSRFVPSFDNAEFAGKPLFGAQQIPGDDVTLRAADVSFEANQYARLEVVKGSSALRAARQLVAVWQLKPDAGELSIETEHPCSMAFTAQQVEQQAIRLCHARGYPAALAKVYGLLEHHHHHH | soluble
MTLTAQKNSWWVGAHAGREYFNNTSEDMKKGWNTGVVLRYYFSDRIYSLATLNYGFASSLSPSGYFDELGNSPNARFRRHSILPAVGLGYEFFQGDFYSCYAQGGVGYGMEYNSVSYPQEYDVSVKRFGWLAELGGDYFLRDNLSLGISVAHLRVGWRNNWTANVKLSICLL | not soluble
MTLYRLHEADLEIPDAWQDQSINIFKLPASGPAREASFVISRDASQGDAPFADYVARQLENAEKQLPGFKLHKRWDINIHGHAAVLLDYQWQREGRDLMLRQVFIERRPAVLITTLTTTPADLPHHEPAWKQAMQTLVPRPTPS | soluble
MTMFGKIFSKKTPKTDIKSNGEALNASEIEQFIKDTLSHYISDNFPQGVLAVCQQLSITQKKKITIKLLMPFVCQGELDLLAQTLSENLARTVNFEIDLAIKPVRQFSLGNDKNKAGQEGMLQGKVANIIAIASGKGGVGKSTTTVNLAYALMCEGARVGILDADIYGPSIPSMLGLKNEKPSSSDGKLMTPVDAKGLSAMSIGFLVDEADATVWRGPMASSAFNQLLNETDWPELDYLLIDMPPGTGDIQLTLAQKVPVAAAVIVTTPQDIALIDAVKGIAMFDKVKVPVLGIVENMSYHLCENCGHKSHIFGEAGGEHMAEDHETKLLGQLPLDITIRQDADFGESDIIENSAGEIANHYRKIARNVSAQLFLQCDTASPLTATVAHKALEHHHHHH | soluble
MTMKGGVASQDFSAAIATACEPAANVWSKVCVALKRELGDAAFGSWIAPAMLREAATGDVVLVTSTGIARDWIRRSAWRRIGELWAAHDATGRRIDLKSRLEFEAAAGAYVEATPKAVAAEPIEIVLPVSTDAPTVVAPSAKSPRTQGLQERFTFETFVPGPANEFAHAVARRIANWADGHFNPVLFHGPYGFGKTHLLNALAWEAMRNAPEKRVVYLTAERFLSTFVRAVMDRQTAAFKEELRAADLLIIDDVHFIAGKQSTQEELFHTLTALVGEGGRVVFSADRPPSAMTEMDAHLRSHLSAGLVCGLEPADRNLRLGILERKIQTLGAAHGFEPSIRPEVMQFLADRFTDSVRELEGALNTLSARAGEGLSRMTLDEVQAILRPHLRSGEKRITIDDIQKATAEHYGMKQADLLSERRNRAVARPRQAAMWLAKQLTTRSLPDIGRRFGGRDHTTVLHAVRRIEALRAEDSALSHDLETLTRKLRGLEHHHHHH | not soluble
